B1: Ribonuclease, P00648 (parent)
chain: MMKMEGIALKKRLSWISVCLLVLVSAAGMLFSTAAKTETSSHKAHTEAQVINTFDGVADYLQTYHKLPDNYITKSEAQALGWVASKGNLADVAPGKSIGGDIFSNREGKLPGKSGRTWREADINYTSGFRNSDRILYSSDWLIYKTTDHYQTFTKIR

Variants of: B1
Conditions: Bacillus amyloliquefaciens; pH 6.3; 25 °C; Urea; Fluorescence; MES-NaOH 50 mM; reversible: yes; structure 1BNI; whole UniProt chain shown

MMKMEGIALKKRLSWISVCLLVLVSAAGMLFSTAAKTETSSHKAHTEAQVINTFDGVAAYLQRYHKLPDNYITKSEAQALGWVASKGNLADVAPGKSIGGDIFSNREGKLPGKSGRTWREADINYTSGFRNSDRILYSSDWLIYKTTDHYQTFTKIR
ddG of mutation (higher = less stable): 0.544 kJ/mol | denaturant m value: 2.24 kcal/mol/M | denaturant midpoint (higher = more stable): 4.4 M | unfolding free energy: 41.3 kJ/mol

MMKMEGIALKKRLSWISVCLLVLVSAAGMLFSTAAKTETSSHKAHTEAQVINTFDGVADYLQRYHKLPDNYITKSEAQALGWVASKGNLADVAPGKSIGGDIFSNREGKLPGKSGRTWREADINYTSGFRNSDRILYSSDWLIYKTTDHYQTFTKIR
ddG of mutation (higher = less stable): 3.26 kJ/mol | denaturant m value: 1.94 kcal/mol/M | denaturant midpoint (higher = more stable): 4.75 M | unfolding free energy: 38.6 kJ/mol

MMKMEGIALKKRLSWISVCLLVLVSAAGMLFSTAAKTETSSHKAHTEAQVINTFDGVAAYLQTYHKLPDNYITKSEAQALGWVASKGNLADVAPGKSIGGDIFSNREGKLPGKSGRTWREADINYTSGFRNSDRILYSSDWLIYKTTDHYQTFTKIR
ddG of mutation (higher = less stable): -0.46 kJ/mol | denaturant m value: 2.33 kcal/mol/M | denaturant midpoint (higher = more stable): 4.33 M | unfolding free energy: 42.3 kJ/mol
